# Assay results: patent US20200149021, “SYSTEM AND METHOD FOR GENOME EDITING” (INSTITUTE OF ZOOLOGY, CHINESE ACADEMY OF SCIENCES, published 2020)
# T1: HkCpf1 (Helcococcus kunzii)
# T1 chain: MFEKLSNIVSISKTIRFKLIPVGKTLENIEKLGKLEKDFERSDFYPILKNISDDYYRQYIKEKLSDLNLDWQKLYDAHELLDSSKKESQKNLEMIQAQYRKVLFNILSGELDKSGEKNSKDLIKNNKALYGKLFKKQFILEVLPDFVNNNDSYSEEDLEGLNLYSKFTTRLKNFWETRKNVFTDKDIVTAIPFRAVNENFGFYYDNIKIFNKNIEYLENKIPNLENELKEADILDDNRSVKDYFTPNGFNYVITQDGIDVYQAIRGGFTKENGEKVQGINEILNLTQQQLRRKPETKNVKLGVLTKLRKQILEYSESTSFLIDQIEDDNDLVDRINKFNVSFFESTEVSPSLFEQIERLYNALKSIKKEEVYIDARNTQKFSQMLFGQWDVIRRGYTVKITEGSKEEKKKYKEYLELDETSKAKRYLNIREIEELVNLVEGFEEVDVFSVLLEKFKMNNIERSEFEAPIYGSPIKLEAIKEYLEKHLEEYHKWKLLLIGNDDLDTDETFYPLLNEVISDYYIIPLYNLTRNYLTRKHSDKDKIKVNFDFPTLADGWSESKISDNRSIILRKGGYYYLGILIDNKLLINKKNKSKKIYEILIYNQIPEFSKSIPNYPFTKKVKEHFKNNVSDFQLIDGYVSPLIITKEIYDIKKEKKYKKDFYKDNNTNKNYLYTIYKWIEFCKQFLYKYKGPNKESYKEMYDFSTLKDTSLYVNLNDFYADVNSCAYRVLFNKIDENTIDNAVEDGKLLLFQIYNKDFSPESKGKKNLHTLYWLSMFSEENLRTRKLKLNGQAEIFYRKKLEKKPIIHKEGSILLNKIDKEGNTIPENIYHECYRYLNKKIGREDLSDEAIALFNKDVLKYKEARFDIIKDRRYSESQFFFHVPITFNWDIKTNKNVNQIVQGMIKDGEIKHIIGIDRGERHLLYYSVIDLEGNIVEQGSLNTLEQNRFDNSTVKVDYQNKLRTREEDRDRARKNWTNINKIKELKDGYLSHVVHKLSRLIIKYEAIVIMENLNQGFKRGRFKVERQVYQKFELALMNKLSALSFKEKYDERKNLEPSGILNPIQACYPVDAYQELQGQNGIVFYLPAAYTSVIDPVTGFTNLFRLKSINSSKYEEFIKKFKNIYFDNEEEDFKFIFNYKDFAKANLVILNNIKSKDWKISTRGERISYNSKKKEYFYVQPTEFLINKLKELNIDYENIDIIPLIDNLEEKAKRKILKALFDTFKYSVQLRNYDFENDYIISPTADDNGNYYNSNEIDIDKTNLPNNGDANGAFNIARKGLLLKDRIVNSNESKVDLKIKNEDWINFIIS
# Molecular target: T1, HkCpf1
# Experiment: cell_activity; PAM TTTC; T7EI
# Settings: tags: HA (2A-eGFP vector)
# Procedure: GFP-positive cells were sorted by FACS, lysed with Buffer L+ 1/100V Protease K (Biotool) at 55° C. for 30 min, inactivated at 95° C. for 5 min, and directly used for PCR detection. Appropriate primers were designed near the Cpf1 targeting site, and the amplified product was purified using DNA Clean & Concentrator™-5 kit (ZYMO Research). 200 ng of purified PCR product was added into 1 uL of NEBuffer2 (NEB) and diluted to 10 uL with ddH₂O. Then, heterodimers were formed by re-annealing according to the previously reported method (Li, W., et al., Simultaneous generation and germline transmission of multiple gene mutations in rat using CRISPR-Cas systems. Nat Biotechnol, 2013. 31(8): p. 684-6). The reannealed product was added with 0.3 uL of T7EI endnucelease and 1/10 V NEBuffer2 (NEB), and digested at 37° C. for 1 h 30 min. Genotype analysis was performed by 3% TAE-Gel electrophoresis. Indels were calculated according to the method reported in the previous article (Cong, L., et al., Multiplex genome engineering using CRISPR/Cas systems. Science, 2013. 339(6121): p. 819-23).
# The cells were transfected with Cpf1, crRNA31, and crRNA2 plasmids, and it was confirmed by PCR and T7EI analysis that crRNA31 can increase the editing efficiency of five Cpf1s of ArCpf1, BsCpf1, HkCpf1, PrCpf1, and PxCpf1 at the site MeCP2-4 by two folds (FIG. 13B).
binder,measurement,value
crRNA31 MeCP2 site 4 ; Mouse MeCP2 site 4 (ssRNA ; dsDNA) RNA: AUUUCUACUAUGGUAGAUGUGUCCAACCUUCAGGCAAGGUG DNA 1: TTTCGTGTCCAACCTTCAGGCAAGGTG DNA 2: CACCTTGCCTGAAGGTTGGACACGAAA,editing efficiency,~2 fold vs crRNA2
